Source: the RNAGym collection of RNA variant scans (doi:10.7554/elife.80360)

B1: Hairpin Ribozyme (parent)
chain: GUCCUCUUUCACGUGCGCGUGAAAGAGAGAAGUGAACCAGAGAAACACACGUUGUGGUAUAUUACCUGGUA

Variants of: B1
Test: self-cleavage, relative activity (ratio to wild type); higher = more cleavage; co-transcriptional

Variant	self-cleavage
C12U A43C	0.105
C12U A49G	0.564
C12A A59G	0.226
A11U G25A	0.402
A11U G25U	0.568
C12U A71U	0.656
C12U A71C	1.31
C12G U14G	0.684
C12G U14A	0.629
C12U G19C	0.955
G13A A31U	0.202
A11G U33C	0.0978
A11U A30C	0.236
C12G U33G	0.0897
C12G U33C	0.246
C12U C18A	1.01
A11G U52A	0.857
A11G U58G	0.802
G13A C38U	0.396
C12G C16U	0.812
C12G G34U	1.16
C12G G34A	1.03
A11G A71C	1.35
A11G A71U	0.749

Variant	self-cleavage
A11G C18U	0.939
A11G C18A	0.795
C12A A44C	0.0806
C12A A44G	0.114
C12A G13A	0.635
C12A G13C	0.927
C12G G29C	0.13
C12G G29U	0.234
G13A A23U	0.734
A11G G29U	0.142
C12U C38U	0.523
A11C U70C	1.23
A11G A23G	0.83
C12U C50G	0.231
G13A A47G	0.185
G13A A47C	0.352
A11G G57C	0.169
C12A A41U	1.13
C12A A41C	1.05
C12G G21U	0.663
A11U U63G	0.175
C12G A35G	0.874
A11G A30U	0.118
A11G C50A	0.196

Variant	self-cleavage
A11G C50G	0.346
A11G A41C	1.06
C12A G56A	0.182
A11U C38A	0.2
C12U C37U	0.504
A11U G40U	0.154
A11G G25C	0.587
A11G G25U	0.569
C12G U52C	0.899
A11U A24U	0.638
C12G A41C	1.21
A11U G68A	0.316
A11U	0.831
A11G	0.883
C12A U67A	0.18
C12A U67C	0.216
C12A U67G	0.215
A11G U20A	0.637
A11G U53A	0.945
A11G U53G	0.755
A11U U60C	1.18
C12G C48A	0.128
G13A C50G	0.316
A11G C16G	0.592

Variant	self-cleavage
C12G U20A	0.795
C12G C18G	0.727
C12G C18U	0.889
C12G C18A	0.926
C12G U60G	0.452
G13A A28G	1
A11U C37G	0.369
A11U C37U	0.524
C12U C66A	0.179
C12G A24U	0.669
C12U C46A	0.177
C12U C46G	0.142
C12U U33C	0.187
C12G U63A	0.194
C12G U63G	0.204
C12U G27A	0.328
C12G A59G	0.18
A11G C46U	0.203
C12U G34A	1.19
C12U G34C	1.14
G13A G21C	0.862
G13A G21A	0.594
C12U U62A	0.148
C12G C37G	0.294

Variant	self-cleavage
A11G U67G	0.354
A11G U67A	0.243
A11G A39C	0.45
C12G A36G	0.843
C12G A36C	0.533
C12G U55A	0.25
C12U A41C	0.886
C12U U67G	0.286
C12U U67A	0.348
C12G C46U	0.191
A11G U60C	1
A11G U60A	0.732
A11U U58C	0.822
C12A G42C	0.272
C12A G42U	0.301
A11U C66U	0.318
C12U G29C	0.133
C12U G29U	0.0791
A11C U63A	0.201
C12A A36U	0.435
C12A U58G	0.708
G13A A49C	0.102
C12U G13A	0.72
A11U A43C	0.139

Variant	self-cleavage
A11U A43G	0.135
C12A A71U	0.701
C12A A71C	1.26
A11U G19U	0.815
C12G G15U	0.906
C12G G15C	0.756
A11U G69U	0.26
A11U G69C	0.229
C12A G25C	0.346
C12U G51A	1.01
C12U G51U	0.872
C12U G51C	0.809
A11U G15U	0.895
C12A A39G	0.285
C12A A39U	0.425
A11G G21A	0.764
A11G G21U	0.72
A11U A23G	0.402
A11U A23C	0.652
C12A G68A	0.262
C12A G68U	0.251
C12A G68C	0.241
A11G A36G	0.972
C12G U70G	0.615

Variant	self-cleavage
C12A A49C	0.0858
C12A U14C	0.71
C12A U14A	0.611
C12A U14G	0.566
C12U G17C	0.578
C12U G17A	0.91
C12G G17A	0.913
C12U C48G	0.185
G13A A24G	0.69
G13A A24C	0.76
A11U A45C	0.241
A11U A45G	0
C12G A45G	0.0996
A11U U67A	0.117
A11U U67C	0.223
A11U A71C	1.17
A11G G54U	0.56
A11G G54A	0.487
C12A U62A	0.168
C12U G25U	0.52
C12U G25C	0.511
A11G C66A	0.29
A11G A28C	0.446
